In patent publication US20190315873A1 (AGOMAB THERAPEUTICS, published 2019):

B1: 71G3 llama-mouse chimeric mAb (mouse IgG1/lambda) (antibody)
heavy: QVQLVESGGGLVQPGGSLRVSCAASGFTFSTYYMSWVRQAPGKGLEWVSDIRTDGGTYYADSVKGRFTMSRDNAKNTLYLQMNSLKPEDTALYYCARTRIFPSGYDYWGQGTQVTVSSAKTTPPSVYPLAPGSAAQTNSMVTLGCLVKGYFPEPVTVTWNSGSLSSGVHTFPAVLQSDLYTLSSSVTVPSSPRPSETVTCNVAHPASSTKVDKKIVPRDCGCKPCICTVPEVSSVFIFPPKPKDVLTITLTPKVTCVVVDISKDDPEVQFSWFVDDVEVHTAQTQPREEQFNSTFRSVSELPIMHQDWLNGKEFKCRVNSAAFPAPIEKTISKTKGRPKAPQVYTIPPPKEQMAKDKVSLTCMITDFFPEDITVEWQWNGQPAENYKNTQPIMNTNGSYFVYSKLNVQKSNWEAGNTFTCSVLHEGLHNHHTEKSLSHSPGK
light: QAVVTQEPSLSVSPGGTVTLTCGLSSGSVTTSNYPGWFQQTPGQAPRTLIYNTNSRHSGVPSRFSGSISGNKAALTIMGAQPEDEADYYCSLYPGSTTVFGGGTHLTVLGQPKSSPSVTLFPPSSEELETNKATLVCTITDFYPGVVTVDWKVDGTPVTQGMETTQPSKQSNNKYMASSYLTLTARAWERHSSYSCQVTHEGHTVEKSLSRADCS
notes: also called 71G3 (mouse format)
B2: 71G2 llama-mouse chimeric mAb (mouse IgG1/lambda) (antibody)
heavy: EVQLQESGGGLVQPGGSLRLSCAASGFTFSIYDMSWVRQAPGKGLEWVSTINSDGSSTSYVDSVKGRFTISRDNAKNTLYLQMNSLKPEDTAVYYCAKVYGSTWDVGPMGYGMDYWGKGTLVTVSSAKTTPPSVYPLAPGSAAQTNSMVTLGCLVKGYFPEPVTVTWNSGSLSSGVHTFPAVLQSDLYTLSSSVTVPSSPRPSETVTCNVAHPASSTKVDKKIVPRDCGCKPCICTVPEVSSVFIFPPKPKDVLTITLTPKVTCVVVDISKDDPEVQFSWFVDDVEVHTAQTQPREEQFNSTFRSVSELPIMHQDWLNGKEFKCRVNSAAFPAPIEKTISKTKGRPKAPQVYTIPPPKEQMAKDKVSLTCMITDFFPEDITVEWQWNGQPAENYKNTQPIMNTNGSYFVYSKLNVQKSNWEAGNTFTCSVLHEGLHNHHTEKSLSHSPGK
light: SSALTQPSALSVSLGQTARITCQGGSLGSSYAHWYQQKPGQAPVLVIYGDDSRPSGIPERFSGSSSGGTATLTISGAQAEDEDDYYCQSTDSSGNTVFGGGTRLTVLGQPKSSPSVTLFPPSSEELETNKATLVCTITDFYPGVVTVDWKVDGTPVTQGMETTQPSKQSNNKYMASSYLTLTARAWERHSSYSCQVTHEGHTVEKSLSRADCS
notes: also called 71G2 (mouse format)

Columns and labels:
human MET ECD [1] = target: T1, human MET ECD (human, UniProt P08581 25-932); assay: ELISA: MET ECD immobilized (100 ng/well), mAb in human IgG1/lambda format in solution (0-40 nM), HRP anti-human Fc
T1 construct: range 1-932; recombinant ECD made by standard protein engineering; also called hMET; human MET extracellular domain
Source text: To this end, we investigated whether our human/mouse equivalent anti-MET antibodies cross-reacted with MET from other species, including rat (Rattus norvegicus) and cynomolgus monkey (Macaca fascicularis). […] Human and mouse MET ECD were used as controls. A restricted panel of antibodies representative of both SEMA binders (71D6, 71C3, 71D4, 71A3, 71G2) and PSI binders (76H10, 71G3) was selected. The 5D5 prior art antibody was used as control. MET ECD proteins were immobilized in solid phase (100 ng/well in a 96-well plate) and exposed to increasing concentrations (0-40 nM) of antibodies (with human constant regions) in solution. […] We conclude that the 71D6, 71C3, 71D4, 71A3, 71G2, 76H10 and 71G3 antibodies bind with similar affinity and capacity to human MET, mouse MET, rat MET and simian MET, at least as determined by ELISA.

[2] = target: monkey MET ECD (cynomolgus monkey); assay: as above
[3] = target: T2, mouse MET on MLP29 mouse liver precursor cells (mouse, UniProt P16056 25-1379); assay: flow cytometry, MLP29 cells
T2 construct: whole, on cells; also called native mouse MET

human MET ECD [4] = target: T1, human MET ECD; assay: ELISA, mouse-format mAb on MET ECD
Description: (§1) In order to directly determine whether—and to what extent—the prior art agonistic anti-MET antibodies cross-reacted with mouse MET, and to compare them to our human/mouse equivalent anti-MET antibodies, we performed an ELISA assay. Since all prior art antibodies were obtained or engineered with a mouse IgG/A format, we employed the mouse IgG/A version of 71G3, 71D6 and 71G2. Human or mouse MET ECD was immobilized in solid phase (100 ng/well in a 96-well plate) and exposed to increasing concentrations of antibodies (0-40 nM) in solution. […] Among the antibodies tested, only 71G3, 71D6 and 71G2 bound to both human and mouse MET, and they did so with indistinguishable affinities and capacities.

mouse MET ECD [5] = target: T3, mouse MET ECD (mouse, UniProt P16056 25-931); assay: ELISA, mouse-format mAb on MET ECD
T3 construct: range 1-931; recombinant ECD; also called mMET; mouse MET extracellular domain
Description: as §1

[6] = target: T2, mouse MET on MLP29 mouse liver …; assay: cell-based or functional assay
[7] = target: T4, human MET on A549 human lung carcinoma cells (human, UniProt P08581 25-1390); assay: cell-based or functional assay
mouse MET ECD [8] = target: T3, mouse MET ECD; assay: ELISA on MET ECD
[9] = target: T4, human MET on A549 human lung carcinoma …; assay: flow cytometry, A549 cells
human MET ECD [10] = target: T1, human MET ECD; assay: ELISA on MET ECD

T4 sequence (P08581 25-1390): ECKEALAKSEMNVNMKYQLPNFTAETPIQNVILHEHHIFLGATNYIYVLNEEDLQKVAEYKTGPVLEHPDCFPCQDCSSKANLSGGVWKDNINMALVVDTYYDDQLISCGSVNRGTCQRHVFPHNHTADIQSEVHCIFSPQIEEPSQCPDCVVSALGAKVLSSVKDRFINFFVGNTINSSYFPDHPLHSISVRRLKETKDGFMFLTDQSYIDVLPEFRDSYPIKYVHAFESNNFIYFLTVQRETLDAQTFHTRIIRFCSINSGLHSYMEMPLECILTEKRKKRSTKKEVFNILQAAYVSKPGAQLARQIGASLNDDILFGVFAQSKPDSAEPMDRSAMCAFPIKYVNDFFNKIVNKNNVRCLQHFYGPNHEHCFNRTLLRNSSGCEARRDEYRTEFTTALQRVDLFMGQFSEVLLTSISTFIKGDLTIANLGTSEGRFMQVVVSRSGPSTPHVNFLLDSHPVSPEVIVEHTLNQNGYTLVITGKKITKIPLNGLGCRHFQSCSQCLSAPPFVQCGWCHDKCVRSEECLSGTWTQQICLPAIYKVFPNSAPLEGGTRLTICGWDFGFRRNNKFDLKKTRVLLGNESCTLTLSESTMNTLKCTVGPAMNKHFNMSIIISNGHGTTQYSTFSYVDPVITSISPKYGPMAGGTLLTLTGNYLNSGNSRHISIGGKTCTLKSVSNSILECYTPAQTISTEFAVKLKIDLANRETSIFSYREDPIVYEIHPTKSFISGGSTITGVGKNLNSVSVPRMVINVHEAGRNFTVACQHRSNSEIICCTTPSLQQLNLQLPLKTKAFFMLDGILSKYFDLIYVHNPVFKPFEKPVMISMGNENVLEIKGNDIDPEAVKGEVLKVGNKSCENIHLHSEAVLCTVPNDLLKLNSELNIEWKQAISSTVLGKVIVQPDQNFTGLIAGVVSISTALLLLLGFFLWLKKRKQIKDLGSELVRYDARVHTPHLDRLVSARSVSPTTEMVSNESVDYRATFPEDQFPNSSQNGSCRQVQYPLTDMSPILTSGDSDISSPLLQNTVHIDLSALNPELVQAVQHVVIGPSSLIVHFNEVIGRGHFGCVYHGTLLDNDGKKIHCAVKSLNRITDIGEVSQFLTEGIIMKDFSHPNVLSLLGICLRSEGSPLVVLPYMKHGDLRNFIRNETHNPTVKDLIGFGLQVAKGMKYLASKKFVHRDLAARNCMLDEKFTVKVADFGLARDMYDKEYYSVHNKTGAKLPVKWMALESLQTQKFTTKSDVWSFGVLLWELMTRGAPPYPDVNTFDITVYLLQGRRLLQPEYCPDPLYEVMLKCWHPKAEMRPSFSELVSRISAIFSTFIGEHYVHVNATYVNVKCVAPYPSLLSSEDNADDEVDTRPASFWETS
T1 sequence (P08581 25-932 limits assumed, form in doubt): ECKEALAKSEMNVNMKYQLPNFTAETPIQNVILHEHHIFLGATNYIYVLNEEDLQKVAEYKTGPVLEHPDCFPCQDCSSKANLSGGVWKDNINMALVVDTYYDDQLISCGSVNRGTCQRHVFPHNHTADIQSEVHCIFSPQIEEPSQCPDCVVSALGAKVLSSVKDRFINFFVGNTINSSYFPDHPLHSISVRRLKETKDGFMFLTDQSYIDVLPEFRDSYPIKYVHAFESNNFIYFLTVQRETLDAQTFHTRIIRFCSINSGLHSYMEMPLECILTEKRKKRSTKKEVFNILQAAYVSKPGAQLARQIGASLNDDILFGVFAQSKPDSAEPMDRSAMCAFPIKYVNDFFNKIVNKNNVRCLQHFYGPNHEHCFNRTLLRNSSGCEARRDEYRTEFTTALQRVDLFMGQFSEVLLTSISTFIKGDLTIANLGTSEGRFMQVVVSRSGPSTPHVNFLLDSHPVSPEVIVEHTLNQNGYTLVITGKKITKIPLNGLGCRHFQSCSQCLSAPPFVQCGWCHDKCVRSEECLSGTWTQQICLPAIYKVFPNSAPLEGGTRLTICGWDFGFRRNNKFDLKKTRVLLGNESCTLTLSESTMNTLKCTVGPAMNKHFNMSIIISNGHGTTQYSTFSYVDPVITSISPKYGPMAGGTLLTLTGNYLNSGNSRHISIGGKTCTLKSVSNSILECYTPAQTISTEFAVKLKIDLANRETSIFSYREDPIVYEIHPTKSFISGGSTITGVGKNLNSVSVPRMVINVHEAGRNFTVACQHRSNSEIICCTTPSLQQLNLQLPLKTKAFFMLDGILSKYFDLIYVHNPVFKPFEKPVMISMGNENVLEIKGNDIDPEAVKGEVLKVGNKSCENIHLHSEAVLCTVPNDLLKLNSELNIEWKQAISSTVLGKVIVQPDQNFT
Sequence of monkey MET ECD (cynomolgus monkey) (A0A2K5 entry or part of it limits assumed): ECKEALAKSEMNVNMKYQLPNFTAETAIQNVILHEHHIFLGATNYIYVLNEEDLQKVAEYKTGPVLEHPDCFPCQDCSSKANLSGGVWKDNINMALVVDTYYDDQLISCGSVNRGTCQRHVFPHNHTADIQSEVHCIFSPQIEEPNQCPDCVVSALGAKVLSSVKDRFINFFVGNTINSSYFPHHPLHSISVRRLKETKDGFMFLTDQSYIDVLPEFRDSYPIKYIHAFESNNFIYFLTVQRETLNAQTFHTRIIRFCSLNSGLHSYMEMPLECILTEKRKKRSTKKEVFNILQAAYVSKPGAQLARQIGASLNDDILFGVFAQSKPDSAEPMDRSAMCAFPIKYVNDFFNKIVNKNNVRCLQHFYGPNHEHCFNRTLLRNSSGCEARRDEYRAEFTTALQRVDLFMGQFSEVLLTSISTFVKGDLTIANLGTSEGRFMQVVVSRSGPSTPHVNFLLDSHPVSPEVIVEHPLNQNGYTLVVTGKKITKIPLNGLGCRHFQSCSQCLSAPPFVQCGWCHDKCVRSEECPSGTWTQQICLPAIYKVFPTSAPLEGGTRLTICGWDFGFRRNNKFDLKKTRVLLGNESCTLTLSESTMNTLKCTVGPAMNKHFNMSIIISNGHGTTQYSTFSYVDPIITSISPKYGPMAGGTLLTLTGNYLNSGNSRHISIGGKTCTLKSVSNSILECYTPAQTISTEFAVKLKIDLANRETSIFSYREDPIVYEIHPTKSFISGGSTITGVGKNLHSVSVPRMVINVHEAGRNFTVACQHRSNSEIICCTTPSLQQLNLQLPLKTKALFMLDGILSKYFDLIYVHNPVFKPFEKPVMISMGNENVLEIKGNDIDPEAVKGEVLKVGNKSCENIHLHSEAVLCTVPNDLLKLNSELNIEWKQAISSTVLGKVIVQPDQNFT

Row | Molecule | EC50 (read off the curve) (human MET ECD [1]) [nM] | EC50 (read off the curve) [2] [nM] | EMAX [3] [% CTR] | EC50 (human MET ECD [4]) [nM] | EMAX (human MET ECD [4]) [OD450] | EMAX (mouse MET ECD [5]) [OD450] | MLP29 MET act. EMAX [6] [% HGF] | A549 MET act. EMAX [7] [% HGF] | EC50 (mouse MET ECD [8]) [nM] | EMAX [9] [% CTR] | EC50 (mouse MET ECD [5]) [nM] | EC50 (human MET ECD [10]) [nM]
1 | 5D5 anti-human MET antibody, human IgG1/lambda format | 0.2 | 0.3 | – | – | – | – | – | – | – | – | – | –
2 | B1 | – | – | 110 | 0.058 | 3.11 | 3.06 | 91.9 | 90.8 | 0.062 | 116 | – | –
3 | B2 | – | – | 128 | 0.098 | 2.86 | 2.96 | 102 | 102 | 0.109 | 142 | 0.091 | 0.113
